Experimental data taken from article PMC10618235.
Like-named read-outs stand apart in the source and are kept apart here. Each block holds one substance with its values, some of them ahead of it.

Experiments:
[1] = target: FBXL6 (F-Box and Leucine Rich Repeat Protein 6) (UniProt Q8N531); experiment: co-IP with anti-Flag IgG, blot; conditions: reference: wild-type TKT; sites T287

Substance: TKT (transketolase): K319A
enzymatic_activity (ubiquitination at K319): abolishes
localisation_or_trafficking (ubiquitination at K319): changes
other (ubiquitination at K319): decreases

Substance: TKT (transketolase): VRK2 inhibition (IC261, 5 μM) or siVRK2
other (phosphorylation at T287): decreases

Substance: TKT (transketolase): K16A
enzymatic_activity (ubiquitination at K16): abolishes
localisation_or_trafficking (ubiquitination at K16): changes
other (ubiquitination at K16): decreases

binding against the reference [1]: lost
Substance: TKT (transketolase) (from UniProt P29401) TKT T287A

Substance: TKT (transketolase): T287A
enzymatic_activity (phosphorylation at T287): decreases
localisation_or_trafficking (phosphorylation at T287): changes
other (phosphorylation at T287): decreases
